From patent publication US20180172684A1

Columns and labels:
[1] = biological target: mycoplasma pneumonia P30 (purified protein P30Ag produced by expressing amino acids 96-274 with Escherichia coli) (Mycoplasma pneumoniae) (UniProt P75330); assay: ELISA, P30Ag coated at 4 ng/mL, antibody 5 ug/mL, anti-mouse IgG-peroxidase
[2] = biological target: mycoplasma pneumonia P30 (purified protein P30Ag produced by expressing amino acids 96-274 with Escherichia coli) (Mycoplasma pneumoniae) (UniProt P75330); assay: immunochromatography sandwich (Com. Ex. 8), label P30(a), detection P30(b); analyte P30Ag
[3] = biological target: mycoplasma pneumonia P30 (purified protein P30Ag produced by expressing amino acids 96-274 with Escherichia coli) (Mycoplasma pneumoniae) (UniProt P75330); assay: immunochromatography sandwich (Com. Ex. 9), label P30(b), detection P30(b); analyte P30Ag
[4] = biological target: full-length protein mycoplasma pneumonia P30 (amino acids 1-274; SEQ ID NO: 1) (Mycoplasma pneumoniae) (UniProt P75330); assay: ELISA, full-length P30 coated, 5 ug/mL P30(b), no peptide (0 point of the peptide 1 series)
[5] = biological target: full-length protein mycoplasma pneumonia P30 (amino acids 1-274; SEQ ID NO: 1) (Mycoplasma pneumoniae) (UniProt P75330); assay: ELISA, full-length P30 coated, 5 ug/mL P30(b), no peptide (0 point of the peptide 2 series)
[6] = biological target: P30 protein of Mycoplasma pneumoniae as present in Mycoplasma pneumoniae analytes (deactivated Mycoplasma pneumoniae Antigen (FH), Meridian; pharyngeal swabs of infected subjects) (Mycoplasma pneumoniae) (UniProt P75330); assay: immunochromatography sandwich (Com. Ex. 1), label P30(a), detection P30(b); pharyngeal swab Subject 1
[7] = biological target: P30 protein of Mycoplasma pneumoniae as present in Mycoplasma pneumoniae analytes (deactivated Mycoplasma pneumoniae Antigen (FH), Meridian; pharyngeal swabs of infected subjects) (Mycoplasma pneumoniae) (UniProt P75330); assay: immunochromatography sandwich (Com. Ex. 1), label P30(a), detection P30(b); pharyngeal swab Subject 2
[8] = biological target: P30 protein of Mycoplasma pneumoniae as present in Mycoplasma pneumoniae analytes (deactivated Mycoplasma pneumoniae Antigen (FH), Meridian; pharyngeal swabs of infected subjects) (Mycoplasma pneumoniae) (UniProt P75330); assay: immunochromatography sandwich (Com. Ex. 2), label P30(b), detection P30(b); pharyngeal swab Subject 1
[9] = biological target: P30 protein of Mycoplasma pneumoniae as present in Mycoplasma pneumoniae analytes (deactivated Mycoplasma pneumoniae Antigen (FH), Meridian; pharyngeal swabs of infected subjects) (Mycoplasma pneumoniae) (UniProt P75330); assay: immunochromatography sandwich (Com. Ex. 2), label P30(b), detection P30(b); pharyngeal swab Subject 2
[10] = biological target: P30 protein of Mycoplasma pneumoniae as present in Mycoplasma pneumoniae analytes (deactivated Mycoplasma pneumoniae Antigen (FH), Meridian; pharyngeal swabs of infected subjects) (Mycoplasma pneumoniae) (UniProt P75330); assay: immunochromatography sandwich (Com. Ex. 7), label P30(b), detection P30(b); pharyngeal swab Subject 1
[11] = biological target: P30 protein of Mycoplasma pneumoniae as present in Mycoplasma pneumoniae analytes (deactivated Mycoplasma pneumoniae Antigen (FH), Meridian; pharyngeal swabs of infected subjects) (Mycoplasma pneumoniae) (UniProt P75330); assay: immunochromatography sandwich (Com. Ex. 7), label P30(b), detection P30(b); pharyngeal swab Subject 2
[12] = biological target: mycoplasma pneumonia P30 (purified protein P30Ag produced by expressing amino acids 96-274 with Escherichia coli) (Mycoplasma pneumoniae) (UniProt P75330); assay: immunochromatography sandwich, P30(b)-gold label and P30(b) detection line, P30Ag 10 pg/mL, no peptide
[13] = biological target: P30 protein of Mycoplasma pneumoniae as present in Mycoplasma pneumoniae analytes (deactivated Mycoplasma pneumoniae Antigen (FH), Meridian; pharyngeal swabs of infected subjects) (Mycoplasma pneumoniae) (UniProt P75330); assay: immunochromatography sandwich (Com. Ex. 1), label P30(a), detection P30(b); deactivated Mycoplasma pneumoniae (FH)
[14] = biological target: P30 protein of Mycoplasma pneumoniae as present in Mycoplasma pneumoniae analytes (deactivated Mycoplasma pneumoniae Antigen (FH), Meridian; pharyngeal swabs of infected subjects) (Mycoplasma pneumoniae) (UniProt P75330); assay: immunochromatography sandwich (Com. Ex. 2), label P30(b), detection P30(b); deactivated Mycoplasma pneumoniae (FH)
[15] = biological target: P30 protein of Mycoplasma pneumoniae as present in Mycoplasma pneumoniae analytes (deactivated Mycoplasma pneumoniae Antigen (FH), Meridian; pharyngeal swabs of infected subjects) (Mycoplasma pneumoniae) (UniProt P75330); assay: immunochromatography sandwich (Com. Ex. 7), label P30(b), detection P30(b); deactivated Mycoplasma pneumoniae (FH)
[16] = biological target: P30 protein of Mycoplasma pneumoniae as present in Mycoplasma pneumoniae analytes (deactivated Mycoplasma pneumoniae Antigen (FH), Meridian; pharyngeal swabs of infected subjects) (Mycoplasma pneumoniae) (UniProt P75330); assay: immunochromatography sandwich (Com. Ex. 6), label P30(a), detection P30(b); pharyngeal swab Subject 1; Triton X-100/Tween 20 diluent
[17] = biological target: P30 protein of Mycoplasma pneumoniae as present in Mycoplasma pneumoniae analytes (deactivated Mycoplasma pneumoniae Antigen (FH), Meridian; pharyngeal swabs of infected subjects) (Mycoplasma pneumoniae) (UniProt P75330); assay: immunochromatography sandwich (Com. Ex. 6), label P30(a), detection P30(b); pharyngeal swab Subject 2; Triton X-100/Tween 20 diluent
[18] = biological target: P30 protein of Mycoplasma pneumoniae as present in Mycoplasma pneumoniae analytes (deactivated Mycoplasma pneumoniae Antigen (FH), Meridian; pharyngeal swabs of infected subjects) (Mycoplasma pneumoniae) (UniProt P75330); assay: immunochromatography sandwich (Com. Ex. 6), label P30(a), detection P30(b); deactivated Mycoplasma pneumoniae (FH); Triton X-100/Tween 20 diluent
[19] = biological target: antibody P30(a) (Fucal Research product Mp-P30-3-AB); assay: immunochromatography competition, 400 ng peptide 1 developed with P30Ag 10 pg/mL, P30(a) label and detection
[20] = biological target: antibody P30(b) (Fucal Research product Mp-P30-9-AB); assay: immunochromatography competition, 400 ng peptide 1 developed with P30Ag 10 pg/mL, P30(b) label and detection
[21] = biological target: antibody P30(a) (Fucal Research product Mp-P30-3-AB); assay: competitive inhibition ELISA, full-length P30 coated, 5 ug/mL P30(a) + peptide 1 at x1 the antibody concentration
[22] = biological target: antibody P30(b) (Fucal Research product Mp-P30-9-AB); assay: competitive inhibition ELISA, full-length P30 coated, 5 ug/mL P30(b) + peptide 1 at x1 the antibody concentration
[23] = biological target: antibody P30(a) (Fucal Research product Mp-P30-3-AB); assay: competitive inhibition ELISA, full-length P30 coated, 5 ug/mL P30(a) + peptide 1 at x10 the antibody concentration
[24] = biological target: antibody P30(a) (Fucal Research product Mp-P30-3-AB); assay: competitive inhibition ELISA, full-length P30 coated, 5 ug/mL P30(a) + peptide 1 at x20 the antibody concentration
[25] = biological target: antibody P30(a) (Fucal Research product Mp-P30-3-AB); assay: competitive inhibition ELISA, full-length P30 coated, 5 ug/mL P30(a) + peptide 1 at x40 the antibody concentration
[26] = biological target: antibody P30(a) (Fucal Research product Mp-P30-3-AB); assay: competitive inhibition ELISA, full-length P30 coated, 5 ug/mL P30(a) + peptide 1 at x80 the antibody concentration
[27] = biological target: antibody P30(b) (Fucal Research product Mp-P30-9-AB); assay: competitive inhibition ELISA, full-length P30 coated, 5 ug/mL P30(b) + peptide 1 at x10 the antibody concentration
[28] = biological target: antibody P30(b) (Fucal Research product Mp-P30-9-AB); assay: competitive inhibition ELISA, full-length P30 coated, 5 ug/mL P30(b) + peptide 1 at x20 the antibody concentration
[29] = biological target: antibody P30(b) (Fucal Research product Mp-P30-9-AB); assay: competitive inhibition ELISA, full-length P30 coated, 5 ug/mL P30(b) + peptide 1 at x40 the antibody concentration
[30] = biological target: antibody P30(b) (Fucal Research product Mp-P30-9-AB); assay: competitive inhibition ELISA, full-length P30 coated, 5 ug/mL P30(b) + peptide 1 at x80 the antibody concentration
[31] = biological target: antibody P30(a) (Fucal Research product Mp-P30-3-AB); assay: competitive inhibition ELISA, full-length P30 coated, 5 ug/mL P30(a) + peptide 1 at x160 the antibody concentration
[32] = biological target: antibody P30(a) (Fucal Research product Mp-P30-3-AB); assay: competitive inhibition ELISA, full-length P30 coated, 5 ug/mL P30(a) + peptide 1 at x320 the antibody concentration
[33] = biological target: antibody P30(a) (Fucal Research product Mp-P30-3-AB); assay: competitive inhibition ELISA, full-length P30 coated, 5 ug/mL P30(a) + peptide 1 at x640 the antibody concentration
[34] = biological target: antibody P30(b) (Fucal Research product Mp-P30-9-AB); assay: competitive inhibition ELISA, full-length P30 coated, 5 ug/mL P30(b) + peptide 1 at x160 the antibody concentration
[35] = biological target: antibody P30(b) (Fucal Research product Mp-P30-9-AB); assay: competitive inhibition ELISA, full-length P30 coated, 5 ug/mL P30(b) + peptide 1 at x320 the antibody concentration
[36] = biological target: antibody P30(b) (Fucal Research product Mp-P30-9-AB); assay: competitive inhibition ELISA, full-length P30 coated, 5 ug/mL P30(b) + peptide 1 at x640 the antibody concentration
[37] = biological target: antibody P30(a) (Fucal Research product Mp-P30-3-AB); assay: competitive inhibition ELISA, full-length P30 coated at 4 ng/mL, 5 ug/mL P30(a) + peptide 1 at 40 times the antibody amount

antibody P30(b) (Fucal Research product Mp-P30-9-AB)
absorbance at 450 nm after subtracting the blank [1]: 0.061 Abs | Color intensity (mAbs) [2]: 31.8 mAbs | Color intensity (mAbs) [3]: 24.3 mAbs | Color intensity (Abs) [4]: 0.208 Abs | Color intensity (Abs) [5]: 0.208 Abs | Color intensity (mAbs) [6]: 16.3 mAbs | Color intensity (mAbs) [7]: 7.9 mAbs | Color intensity (mAbs) [8]: 8.9 mAbs | Color intensity (mAbs) [9]: 6.1 mAbs | Color intensity (mAbs) [10]: 15.2 mAbs | Color intensity (mAbs) [11]: 8.9 mAbs | Color intensity after 15 min [12]: 58.2 mAbs | Color intensity (mAbs) [13]: 79.4 mAbs | Color intensity (mAbs) [14]: 18.9 mAbs | Color intensity (mAbs) [15]: 40.5 mAbs | Color intensity (mAbs) [16]: 29.8 mAbs | Color intensity (mAbs) [17]: 13.6 mAbs | Color intensity (mAbs) [18]: 159 mAbs

PGMAPRPGMPPHPGMAPR [Peptide 1 (SEQ ID NO: 6: …)]
Color intensity after 15 min [19]: 100 mAbs | Color intensity after 15 min [20]: 60.9 mAbs | Color intensity (Abs) [21]: 0.37 Abs | Percentage reduction of color intensity (%) [21]: 10% | Color intensity (Abs) [22]: 0.226 Abs | Color intensity (Abs) [23]: 0.341 Abs | Percentage reduction of color intensity (%) [23]: 17% | Color intensity (Abs) [24]: 0.322 Abs | Percentage reduction of color intensity (%) [24]: 22% | Color intensity (Abs) [25]: 0.24 Abs | Percentage reduction of color intensity (%) [25]: 42% | Color intensity (Abs) [26]: 0.17 Abs | Percentage reduction of color intensity (%) [26]: 59% | Color intensity (Abs) [27]: 0.256 Abs | Color intensity (Abs) [28]: 0.228 Abs | Color intensity (Abs) [29]: 0.232 Abs | Color intensity (Abs) [30]: 0.237 Abs | Color intensity (Abs) [31]: 0.134 Abs | Percentage reduction of color intensity (%) [31]: 67% | Color intensity (Abs) [32]: 0.132 Abs | Percentage reduction of color intensity (%) [32]: 68% | Color intensity (Abs) [33]: 0.12 Abs | Percentage reduction of color intensity (%) [33]: 71% | Color intensity (Abs) [34]: 0.223 Abs | Color intensity (Abs) [35]: 0.23 Abs | Color intensity (Abs) [36]: 0.225 Abs | percentage reduction of absorbance [37]: > 30%
